Results on 29 substances are retold here after patent publication US9012398B2.

This experiment deals with human GLP-1 receptor (human) (UniProt P43220).

For the substance “N-ε^27-2-(2-2-(2-(2-(2-(4-(Octadecanoylamino)-4(S)- carboxybutyrylamino)ethoxy)ethoxy)acetylamino)ethoxy)ethoxy)acetyl [Arg^12,Leu^14,Lys^27,Leu^28]Exendin-4-(1-39)-amide (from UniProt P26349) (peptide)”, the GLP1cAMPma (3693) [EC50 (nM)] Mean Value was 0.14 nM. Next, “N-ε^28-{2-(2-(2-(2-[2-(2-(4-(hexadecanoylamino)-4- carboxybutyrylamino)ethoxy)ethoxy]acetylamino)ethoxy)ethoxy) acetyl)}-[Leu^14,Lys^20]Exendin-4-amide (from UniProt P26349) (peptide)”: 0.011 nM; “N-ε^20-(2-(2-(2-(2-(2-(2-(17- carboxyheptadecanoylamino)ethoxy)ethoxy)acetylamino)ethoxy) ethoxy)acetyl)[Arg12,Leu^14,Arg^27,Gln^28,Lys^20]Exendin-4 (1-39)amide (from UniProt P26349) (peptide)”: 5.45 nM. Under “N-ε^28-[2-(2-[2-(2-[2-(2-[4-hexadecanoylamino-4(S)- carboxybutyrylamino]ethoxy)ethoxy]acetylamino)ethoxy]ethoxy)acetyl] [alfa-Me-Phe^6,Arg^12,Val^27,Lys^28,Ala^29]Exendin-4-(1-39)-amide (from UniProt P26349) (peptide)” stands 0.052 nM. Substance “N-ε^20-(2-(2-(2-(2-(2-(2-(17- carboxyheptadecanoylamino)ethoxy)ethoxy)acetylamino)ethoxy) ethoxy)acetyl[Aib^2,Lys^20,Ala^29,Ser(O-benzyl)^39]Exendin-4-(1-39)-amide (from UniProt P26349) (peptide)” registered a GLP1cAMPma (3693) [EC50 (nM)] Mean Value of 0.23 nM. Next, “N-ε^28-(2-(2-(2-(2-(2-(2-(2-(2-(2- (Octadecanoylamino)ethoxy)ethoxy)acetylamino)ethoxy)ethoxy)acetyl- amino)ethoxy)ethoxy)acetyl))[Arg^12,Leu^14,Val^27,Lys^28 Exendin-4(1- 39)amide (from UniProt P26349) (peptide)”: 0.025 nM. “N-ε^34-[2-(2-[2-(2-[2-(2-[4-hexadecanoylamino-4(S)- carboxybutyrylamino]ethoxy)ethoxy]acetylamino)ethoxy]ethoxy)acetyl] [Arg^12,27,Leu^14,Lys^34]Exendin-4(1-39)amide (from UniProt P26349) (peptide)” displayed a GLP1cAMPma (3693) [EC50 (nM)] Mean Value of 0.018 nM. In the case of “N--ε^20-{2-(2-(2-(2-[2-(2-(4-(hexadecanoylamino)-4- carboxybutyrylamino)ethoxy)ethoxy]acetyl)ethoxy)ethoxy)acetyl)}- [Leu^14,Gln^27,Gln^28,Lys^20]Exendin-4-amide (from UniProt P26349) (peptide)”, the GLP1cAMPma (3693) [EC50 (nM)] Mean Value was 0.093 nM.

For “N-ε^27-{2-(2-(2-(2-[2-(2-(4-(hexadecanoylamino)-4(S)- carboxybutyrylamino)ethoxy)ethoxy]acetylamino)ethoxy)ethoxy) acetyl)}[Gln^12,Leu^14,28,Lys^27]Exendin-4(1-39)amide (from UniProt P26349) (peptide)”, the GLP1cAMPma (3693) [EC50 (nM)] Mean Value worked out at 0.041 nM. “N-ε^27-2-(2-2-(2-(2-(2-(4-(Hexadecanoylamino)-4(S)- carboxybutyrylamino)ethoxy)ethoxy)acetylamino)ethoxy) ethoxy)acetyl[Arg^12,Leu^14,Lys^27,Leu^28]Exendin-4-(1-39)-peptide amide (from UniProt P26349)” gave a GLP1cAMPma (3693) [EC50 (nM)] Mean Value of 0.093 nM. “N-ε^20-{2-(2-(2-(2-[2-(2-(4-(hexadecanoylamino)-4- carboxybutyrylamino)ethoxy)ethoxy]acetylamino)ethoxy)ethoxy) acetyl)}-[Gln^28,Lys^20]Exendin-4-amide (from UniProt P26349) (peptide)” displayed a GLP1cAMPma (3693) [EC50 (nM)] Mean Value of 0.033 nM.

“N-ε^27-[2-(2-[2-(2-[2-(2-[4-hexadecanoylamino-4(S)- carboxybutyrylamino]ethoxy)ethoxy]acetylamino)ethoxy]ethoxy)acetyl] [Arg^12,Leu^14,Lys^27]Exendin-4(1-39)amide (from UniProt P26349) (peptide)”: the GLP1cAMPma (3693) [EC50 (nM)] Mean Value was found to be 0.007 nM. Substance “N-ε^20-{2-(2-(2-(2-[2-(2-(4-(hexadecanoylamino)-4- carboxybutyrylamino)ethoxy)ethoxy]acetylamino)ethoxy)ethoxy) acetyl)}-[Leu^14,Gln^28,Lys^20]Exendin-4-amide (from UniProt P26349) (peptide)” returned a GLP1cAMPma (3693) [EC50 (nM)] Mean Value of 0.023 nM. Under “N-ε^27-2-(2-(2-(2-(2-(2-(4-(Octadecanoylamino)-4(S)- carboxybutyrylamino)ethoxy)ethoxy)acetylamino)ethoxy) ethoxy)acetyl[Arg^12,Leu^14,Lys^27,Ala^29]Exendin-4-(1-39)-amide (from UniProt P26349) (peptide)” stands 0.24 nM; under “N-ε^32-[2-(2-[2-(2-[2-(2-[2-(2-[2- (Eicosanoylamino)ethoxy]ethoxy)acetylamino]ethoxy)ethoxy] acetylamino)ethoxy]ethoxy)acetyl][Arg^12,28,Leu^14,Val^27,Lys^32] Exendin-4-(1-39)amide (from UniProt P26349) (peptide)”, 0.27 nM.

For the substance “N-ε^27-(2-(2-(2-(2-(2-(2-(2-(2-(2- (Octadecanoylamino)ethoxy)ethoxy)acetylamino)ethoxy)ethoxy)acetyl- amino)ethoxy)ethoxy)acetyl)[Arg^12,Leu^14,Lys^27,Ala^29]Exendin-4-(1- 39)-amide (from UniProt P26349) (peptide)”, the GLP1cAMPma (3693) [EC50 (nM)] Mean Value is 0.08 nM.

The substance “N-ε^27-(2-(2-(2-(2-(2-(2-(17-carboxyheptadecanoylamino-4(S)- carboxybutyrylamino])ethoxy)ethoxy)acetylamino)ethoxy)ethoxy) acetyl)[Leu^14,Arg^12,Lys^27]Exendin-4(1-39)amide (from UniProt P26349) (peptide)” returned a GLP1cAMPma (3693) [EC50 (nM)] Mean Value of 0.52 nM. “N-ε^34-(2-(2-(2-(16-tetrazoylhexadecanoylamino-4(S)- carboxybutyrylamino)ethoxy)ethoxy(acetyl)[Leu^14,Arg^12,27, Lys^34]Exendin-4(1-39)amide (from UniProt P26349) (peptide)”: the GLP1cAMPma (3693) [EC50 (nM)] Mean Value came out at 0.61 nM. Next, “N-ε^20-[2-(2-[2-(2-[2-(2-[4-(octadecanoylamino)-4(S)- carboxybutyrylamino]ethoxy)ethoxy]acetylamino)ethoxy]ethoxy)acetyl] [Aib^2,Lys^20,Ala^29,Ser(O-benzyl)^39]Exendin-4-(1-39)-amide (from UniProt P26349) (peptide)”: 0.006 nM.

For “N-ε^32-(2-(2-(2-(2-(2-(2-(2-(2-(2- (Octadecanoylamino)ethoxy)ethoxy)acetylamino)ethoxy)ethoxy)acetyl- amino)ethoxy)ethoxy)acetyl))[Arg^12,Leu^14,Val^27,Arg^28,Lys^32]Exendin-4 (1-39)amide (from UniProt P26349) (peptide)”, the GLP1cAMPma (3693) [EC50 (nM)] Mean Value came out at 0.027 nM.

In turn, “N-ε^20-[2-(2-[2-(2-[2-(2-[4-(17-Carboxyheptadecanoylamino)-4(S)- carboxybutyrylamino]ethoxy)ethoxy]acetylamino)ethoxy]ethoxy)acetyl] [Aib^2;Gln^28,Lys^20]exendin-4(1-39)amide (from UniProt P26349) (peptide)” gave a GLP1cAMPma (3693) [EC50 (nM)] Mean Value of 0.1 nM. The substance “N-ε^34-[2-(2-[2-[4-hexadecanoylamino-4(S)- carboxybutyrylamino]ethoxy]ethoxy)acetyl][Arg^12,27,Leu^14,Lys^34] Exendin-4(1-39)amide (from UniProt P26349) (peptide)” had a GLP1cAMPma (3693) [EC50 (nM)] Mean Value of 0.012 nM.

On to “N-ε^14-(2-(2-(2-(2-(2-(2-(2-(2-(2- (Octadecanoylamino)ethoxy)ethoxy)acetylamino)ethoxy)ethoxy)acetyl- amino)ethoxy)ethoxy)acetyl)[Arg^12,Lys^14,Val^27,Arg^28]Exendin-4-(1-39)- amide (from UniProt P26349) (peptide)”, for which the GLP1cAMPma (3693) [EC50 (nM)] Mean Value turned out to be 0.088 nM. Under “N-ε^32-(2-(2-(2-(2-(2-(2-(4-(Octadecanoylamino)-4(S)- carboxybutyrylamino))ethoxy)ethoxy)acetylamino)ethoxy) ethoxy)acetyl[Arg^12,Leu^14,Val^27,Arg^28,Lys^32]Exendin-4-(1-39)amide (from UniProt P26349) (peptide)” stands 0.025 nM; under “N-ε^12-[2-(2-[2-(2-[2-(2-[4-(17-carboxyheptadecanoylamino)-4(S)- carboxybutyrylamino]ethoxy)ethoxy]acetylamino)ethoxy]ethoxy)acetyl] [Lys^12,Leu^14,Arg^27,Gln^28]Exendin-4-(1-39)-amide (from UniProt P26349) (peptide)”, 0.22 nM; under “N-ε^28-(2-(2-(2-(2-(2-(2-(2-(2-(2- (Octadecanoylamino)ethoxy)ethoxy)acetylamino)ethoxy)ethoxy)acetyl- amino)ethoxy)ethoxy)acetyl))[Arg^12,Val^27,Lys^28]Exendin-4(1-39)amide (from UniProt P26349) (peptide)”, 0.041 nM. As to “N-ε^14-(2-(2-(2-(2-(2-(2-(4-(Octadecanoylamino)-4(S)- carboxybutyrylamino)ethoxy)ethoxy)acetylamino)ethoxy)ethoxy)acetyl [Arg^12,Lys^14,Val^27,Arg^28]Exendin-4-(1-39)-amide (from UniProt P26349) (peptide)”, the GLP1cAMPma (3693) [EC50 (nM)] Mean Value amounted to 0.059 nM. With “N-ε^14-(2-(2-2-(2-(2-(4-(hexadecanoylamino)-4-(S)- carboxybytyrylamino)ethoxy)ethoxy)acetylamino)ethoxy)ethoxy)acetyl [Arg^12,Lys^l4,Val^27,Arg^28]Exendin-4-(1-39)-amide (from UniProt P26349) (peptide)”, the GLP1cAMPma (3693) [EC50 (nM)] Mean Value came to 0.037 nM. As to “N-ε^20-[2-(2-[2-(2-[2-(2-[4-hexadecanoylamino-4(S)- carboxybutyrylamino]ethoxy)ethoxy]acetylamino)ethoxy]ethoxy)acetyl] [Arg^12,27,28,Leu^14,Lys^20]Exendin-4(1-39)amide (from UniProt P26349) (peptide)”, the GLP1cAMPma (3693) [EC50 (nM)] Mean Value amounted to 0.027 nM.
